Measurements published in paper PMC10411901, “FIRRM cooperates with FIGNL1 to promote RAD51 disassembly during DNA repair” (Science Advances, 2023).

T1: recombinant full-length FIRRM (human, UniProt Q9NSG2 1-853)
T1 construct: full-length codon-optimized human FIRRM from GenScript; Insect cell form: modified pFastBac dual vector with an N-terminal GFP tag removable with TEV protease; also called iFIRRM (form from insect cells); source: purified from bacteria (E. coli BL21RP) or Sf9 insect cells
T1 sequence (looked up): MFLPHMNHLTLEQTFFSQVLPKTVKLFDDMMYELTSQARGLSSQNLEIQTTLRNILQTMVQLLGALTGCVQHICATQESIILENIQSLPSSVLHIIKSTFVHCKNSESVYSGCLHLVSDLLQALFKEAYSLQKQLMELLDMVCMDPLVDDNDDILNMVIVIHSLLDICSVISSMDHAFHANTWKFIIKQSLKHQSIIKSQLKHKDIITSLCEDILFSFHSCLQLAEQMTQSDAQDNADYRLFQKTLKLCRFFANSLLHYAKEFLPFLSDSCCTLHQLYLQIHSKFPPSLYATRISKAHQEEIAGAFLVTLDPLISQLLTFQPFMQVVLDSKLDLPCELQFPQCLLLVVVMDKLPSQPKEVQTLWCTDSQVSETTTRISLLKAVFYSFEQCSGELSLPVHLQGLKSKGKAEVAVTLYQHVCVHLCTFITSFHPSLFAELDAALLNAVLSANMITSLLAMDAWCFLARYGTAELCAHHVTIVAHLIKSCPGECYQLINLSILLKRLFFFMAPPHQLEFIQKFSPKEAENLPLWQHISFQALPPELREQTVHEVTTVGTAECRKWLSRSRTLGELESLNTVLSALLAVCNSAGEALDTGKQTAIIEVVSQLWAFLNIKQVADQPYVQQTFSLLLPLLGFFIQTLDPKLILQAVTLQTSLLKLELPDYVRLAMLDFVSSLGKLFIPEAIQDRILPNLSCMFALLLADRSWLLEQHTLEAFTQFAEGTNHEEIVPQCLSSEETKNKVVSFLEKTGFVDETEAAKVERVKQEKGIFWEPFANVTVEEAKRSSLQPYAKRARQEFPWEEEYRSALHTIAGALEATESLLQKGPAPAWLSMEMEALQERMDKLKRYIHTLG

B1: recombinant full-length FIGNL1 (natural protein, human, UniProt Q6PIW4 1-674, looked up)
chain: MQTSSSRSVHLSEWQKNYFAITSGICTGPKADAYRAQILRIQYAWANSEISQVCATKLFKKYAEKYSAIIDSDNVESGLNNYAENILTLAGSQQTDSDKWQSGLSINNVFKMSSVQKMMQAGKKFKDSLLEPALASVVIHKEATVFDLPKFSVCGSSQESDSLPNSAHDRDRTQDFPESNRLKLLQNAQPPMVTNTARTCPTFSAPVGESATAKFHVTPLFGNVKKENHSSAKENIGLNVFLSNQSCFPAACENPQRKSFYGSGTIDALSNPILNKACSKTEDNGPKEDSSLPTFKTAKEQLWVDQQKKYHQPQRASGSSYGGVKKSLGASRSRGILGKFVPPIPKQDGGEQNGGMQCKPYGAGPTEPAHPVDERLKNLEPKMIELIMNEIMDHGPPVNWEDIAGVEFAKATIKEIVVWPMLRPDIFTGLRGPPKGILLFGPPGTGKTLIGKCIASQSGATFFSISASSLTSKWVGEGEKMVRALFAVARCQQPAVIFIDEIDSLLSQRGDGEHESSRRIKTEFLVQLDGATTSSEDRILVVGATNRPQEIDEAARRRLVKRLYIPLPEASARKQIVINLMSKEQCCLSEEEIEQIVQQSDAFSGADMTQLCREASLGPIRSLQTADIATITPDQVRPIAYIDFENAFRTVRPSVSPKDLELYENWNKTFGCGK
notes: Insect cell form: modified pFastBac dual vector with an N-terminal GFP tag removable with TEV protease; source: purified from bacteria (E. coli BL21RP) or Sf9 insect cells
B2: FIGNL1 purified from insect cells (natural protein, human, UniProt Q6PIW4 1-674, looked up)
chain: MQTSSSRSVHLSEWQKNYFAITSGICTGPKADAYRAQILRIQYAWANSEISQVCATKLFKKYAEKYSAIIDSDNVESGLNNYAENILTLAGSQQTDSDKWQSGLSINNVFKMSSVQKMMQAGKKFKDSLLEPALASVVIHKEATVFDLPKFSVCGSSQESDSLPNSAHDRDRTQDFPESNRLKLLQNAQPPMVTNTARTCPTFSAPVGESATAKFHVTPLFGNVKKENHSSAKENIGLNVFLSNQSCFPAACENPQRKSFYGSGTIDALSNPILNKACSKTEDNGPKEDSSLPTFKTAKEQLWVDQQKKYHQPQRASGSSYGGVKKSLGASRSRGILGKFVPPIPKQDGGEQNGGMQCKPYGAGPTEPAHPVDERLKNLEPKMIELIMNEIMDHGPPVNWEDIAGVEFAKATIKEIVVWPMLRPDIFTGLRGPPKGILLFGPPGTGKTLIGKCIASQSGATFFSISASSLTSKWVGEGEKMVRALFAVARCQQPAVIFIDEIDSLLSQRGDGEHESSRRIKTEFLVQLDGATTSSEDRILVVGATNRPQEIDEAARRRLVKRLYIPLPEASARKQIVINLMSKEQCCLSEEEIEQIVQQSDAFSGADMTQLCREASLGPIRSLQTADIATITPDQVRPIAYIDFENAFRTVRPSVSPKDLELYENWNKTFGCGK
notes: The GFP tag is removable with tobacco etch virus protease; the results speak of the protein from insect cells; source: Sf9 insect cells (baculovirus), purified (gel filtration)

Legend:
[1] = molecular target: T1, recombinant full-length FIRRM; experiment: co-IP; purified recombinant RAD51, FIRRM and FIGNL1 together; anti-RAD51 14B4 on protein A/G Sepharose; IPB buffer (20 mM KPO4 pH 7.4, 175 mM KCl, 0.5 mM EDTA, 0.5% NP-40, 10% glycerol, 1 mM DTT); Western blot; conditions: both partners purified
[2] = molecular target: the molecule itself; experiment: cryo-EM two-dimensional class averages; FIGNL1 10 μM in 1× PBS with 2 mM MgCl2 and 1 mM AMP-PNP on graphene oxide lacey carbon grids; 2D classes from 1287 particles; hexamer model from an AlphaFold monomer

Row | Binder | binding result [1] | stoichiometry N [2]
1 | B1 | binds | 
2 | B2 |  | 6
